Source: US10808017B2, “Ubiquitin variants and uses therof as 53BP1 inhibitors” (The Governing Council of the University of Toronto, priority 2016, dated 2020)

Assays:
[1] = biological target: T1, TXNDC12 (Homo sapiens, UniProt O95881); assay: Flag IP-MS of i53/i53-DM baits: prey TXNDC12; format: binding; conditions: 293T Flp-In/T-Rex extracts, LC-MS/MS, one column per replicate IP
T1 construct: endogenous in cells; host or cells: HEK293 Flp-In/T-REx
Method: (§1) Following immunoprecipitation of Flag-tagged i53 and i-53-DM from HEK293 Flp-In/T-REx cells, peptides were identified using LC-MS/MS. Proteins were digested in solution with trypsin (Sigma, T7575-1KT) and dried to completeness. For LC-MS/MS analysis, peptides were reconstituted in 5% formic acid and loaded onto a 12-15 cm fused silica column with pulled tip packed in-house with 3.5 μm Zorbax C18 (Agilent Technologies, Calif., USA).
(§2) i53 and i53-DM precipitates were analyzed using an LTQ (Thermo Scientific) coupled to an Agilent 1100 Series HPLC (Agilent Technologies). Peptides were eluted from the column using a 90 min period cycle with a linear gradient from 0% to 40% ACN in 0.1% formic acid. Tandem MS spectra were acquired in a data-dependent mode for the top 5 (LTQ) most abundant ions using collision-induced dissociation. Acquired spectra were searched against the human Refseq_V53 database using Mascot (Matrix Science).
(§3) 293T Flp-In/T-Rex cell lines were generated that expressed Flag-tagged i53 or i53-DM under the control of a tetracycline-inducible promoter as previously described. Nine IP-MS experiments were analyzed (3 biological replicate IPs each for control i53- and i53-DM expressing cell lines). The interacting proteins were identified by MASCOT to identify high-confidence interactors for i53. […]

[2] = biological target: T2, WDR96 (Homo sapiens, UniProt Q8NDM7); assay: Flag IP-MS of i53/i53-DM baits: prey WDR96; format: binding; conditions: 293T Flp-In/T-Rex extracts, LC-MS/MS, one column per replicate IP
T2 construct: Following immunoprecipitation of Flag-tagged i53 and i-53-DM from HEK293 Flp-In/T-REx cells, peptides were identified using LC-MS/MS; endogenous in cells; host or cells: HEK293 Flp-In/T-REx cells
Method: as §1, §2, §3

[3] = biological target: T3, RBMXL1 (Homo sapiens, UniProt Q96E39); assay: Flag IP-MS of i53/i53-DM baits: prey RBMXL1; format: binding; conditions: 293T Flp-In/T-Rex extracts, LC-MS/MS, one column per replicate IP
T3 construct: endogenous in cells; host or cells: HEK293 Flp-In/T-REx cells
Method: as §1, §2, §3

[4] = biological target: T4, HIST2H2BE (Homo sapiens, UniProt Q16778); assay: Flag IP-MS of i53/i53-DM baits: prey HIST2H2BE; format: binding; conditions: 293T Flp-In/T-Rex extracts, LC-MS/MS, one column per replicate IP
T4 construct: endogenous in cells; host or cells: HEK293 Flp-In/T-REx cells
Method: as §1, §2, §3

[5] = biological target: T5, RPS29 (Homo sapiens, UniProt P62273); assay: Flag IP-MS of i53/i53-DM baits: prey RPS29; format: binding; conditions: 293T Flp-In/T-Rex extracts, LC-MS/MS, one column per replicate IP
T5 construct: Following immunoprecipitation of Flag-tagged i53 and i-53-DM from HEK293 Flp-In/T-REx cells, peptides were identified using LC-MS/MS; endogenous in cells; host or cells: HEK293 Flp-In/T-REx cells
Method: as §1, §2, §3

[6] = biological target: T6, INTS3 (Homo sapiens, UniProt Q68E01); assay: Flag IP-MS of i53/i53-DM baits: prey INTS3; format: binding; conditions: 293T Flp-In/T-Rex extracts, LC-MS/MS, one column per replicate IP
T6 construct: Following immunoprecipitation of Flag-tagged i53 and i-53-DM from HEK293 Flp-In/T-REx cells, peptides were identified using LC-MS/MS; endogenous in cells; host or cells: HEK293 Flp-In/T-REx cells
Method: as §1, §2, §3

[7] = biological target: T7, 53BP1 recruitment to DSB sites in U2OS cells (Homo sapiens, UniProt Q12888); assay: Ionizing radiation focus formation, 53BP1 (immunofluorescence); format: cell-based; conditions: transfected U2OS cells, 10 Gy X-rays, 1 h post-irradiation
T7 construct: endogenous in cells; host or cells: U2OS
Method: (§4) FIG. 3. The i53 protein inhibits 53BP1. FIG. 3A-B, U2OS cells were transfected with vectors expressing i53, its 53BP1-binding deficient mutant (DM) or an empty vector (EV) control. Cells were then X-irradiated with a 10 Gy dose and processed for immunofluorescence with the indicated antibodies 1 h post-irradiation (IR). DAPI staining (not shown) was used to delineate the outline (dashed lines) of the cell nuclei. The region in the magnified inset is indicated with a square. Quantitation of the experiment is shown in panel (a) and data is indicated as the mean±s.e.m (N=3), whereas in (b) representative micrographs are shown. Arrowheads indicate Flag-positive cells. FIG. 3C, Parental or 53BP1ΔU2OS cells transfected with vectors expressing i53, the DM mutant or an empty vector (EV) control were irradiated (10 Gy) 1 h before being processed for immunofluorescence. Cell cycle stage was assessed by Cyclin A staining. The data is presented as the mean±s.e.m.; N=3. FIG. 3D, Immunoprecipitation (IP) of Flag-tagged proteins from extracts prepared from 293T cells transfected with vectors expressing Flag-i53 or the i53-DM mutant. Proteins were separated by SDS-PAGE and immunoblotted (IB) for Flag and 53BP1. […]

[8] = system: BRCA1 focus formation in U2OS cells; assay: Ionizing radiation focus formation, BRCA1 (immunofluorescence); format: cell-based; conditions: 10 Gy
Method: as §4

[9] = biological target: T8, NAP1L1 (Homo sapiens, UniProt P55209); assay: Flag IP-MS of i53/i53-DM baits: prey NAP1L1; format: binding; conditions: 293T Flp-In/T-Rex extracts, LC-MS/MS, one column per replicate IP
T8 construct: endogenous in cells; host or cells: HEK293 Flp-In/T-REx
T8 sequence (P55209 1-391): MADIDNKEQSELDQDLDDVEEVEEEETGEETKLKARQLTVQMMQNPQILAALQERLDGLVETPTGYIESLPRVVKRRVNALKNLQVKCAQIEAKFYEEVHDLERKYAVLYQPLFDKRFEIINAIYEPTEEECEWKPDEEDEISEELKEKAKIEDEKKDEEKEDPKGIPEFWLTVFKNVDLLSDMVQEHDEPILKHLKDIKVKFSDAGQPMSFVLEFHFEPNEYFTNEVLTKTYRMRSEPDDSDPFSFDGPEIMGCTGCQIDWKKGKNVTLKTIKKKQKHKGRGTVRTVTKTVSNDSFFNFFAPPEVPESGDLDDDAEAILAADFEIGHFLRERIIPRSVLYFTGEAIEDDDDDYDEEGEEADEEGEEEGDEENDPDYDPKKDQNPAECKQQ
Method: as §1, §2, §3

T7 sequence (Q12888 whole entry): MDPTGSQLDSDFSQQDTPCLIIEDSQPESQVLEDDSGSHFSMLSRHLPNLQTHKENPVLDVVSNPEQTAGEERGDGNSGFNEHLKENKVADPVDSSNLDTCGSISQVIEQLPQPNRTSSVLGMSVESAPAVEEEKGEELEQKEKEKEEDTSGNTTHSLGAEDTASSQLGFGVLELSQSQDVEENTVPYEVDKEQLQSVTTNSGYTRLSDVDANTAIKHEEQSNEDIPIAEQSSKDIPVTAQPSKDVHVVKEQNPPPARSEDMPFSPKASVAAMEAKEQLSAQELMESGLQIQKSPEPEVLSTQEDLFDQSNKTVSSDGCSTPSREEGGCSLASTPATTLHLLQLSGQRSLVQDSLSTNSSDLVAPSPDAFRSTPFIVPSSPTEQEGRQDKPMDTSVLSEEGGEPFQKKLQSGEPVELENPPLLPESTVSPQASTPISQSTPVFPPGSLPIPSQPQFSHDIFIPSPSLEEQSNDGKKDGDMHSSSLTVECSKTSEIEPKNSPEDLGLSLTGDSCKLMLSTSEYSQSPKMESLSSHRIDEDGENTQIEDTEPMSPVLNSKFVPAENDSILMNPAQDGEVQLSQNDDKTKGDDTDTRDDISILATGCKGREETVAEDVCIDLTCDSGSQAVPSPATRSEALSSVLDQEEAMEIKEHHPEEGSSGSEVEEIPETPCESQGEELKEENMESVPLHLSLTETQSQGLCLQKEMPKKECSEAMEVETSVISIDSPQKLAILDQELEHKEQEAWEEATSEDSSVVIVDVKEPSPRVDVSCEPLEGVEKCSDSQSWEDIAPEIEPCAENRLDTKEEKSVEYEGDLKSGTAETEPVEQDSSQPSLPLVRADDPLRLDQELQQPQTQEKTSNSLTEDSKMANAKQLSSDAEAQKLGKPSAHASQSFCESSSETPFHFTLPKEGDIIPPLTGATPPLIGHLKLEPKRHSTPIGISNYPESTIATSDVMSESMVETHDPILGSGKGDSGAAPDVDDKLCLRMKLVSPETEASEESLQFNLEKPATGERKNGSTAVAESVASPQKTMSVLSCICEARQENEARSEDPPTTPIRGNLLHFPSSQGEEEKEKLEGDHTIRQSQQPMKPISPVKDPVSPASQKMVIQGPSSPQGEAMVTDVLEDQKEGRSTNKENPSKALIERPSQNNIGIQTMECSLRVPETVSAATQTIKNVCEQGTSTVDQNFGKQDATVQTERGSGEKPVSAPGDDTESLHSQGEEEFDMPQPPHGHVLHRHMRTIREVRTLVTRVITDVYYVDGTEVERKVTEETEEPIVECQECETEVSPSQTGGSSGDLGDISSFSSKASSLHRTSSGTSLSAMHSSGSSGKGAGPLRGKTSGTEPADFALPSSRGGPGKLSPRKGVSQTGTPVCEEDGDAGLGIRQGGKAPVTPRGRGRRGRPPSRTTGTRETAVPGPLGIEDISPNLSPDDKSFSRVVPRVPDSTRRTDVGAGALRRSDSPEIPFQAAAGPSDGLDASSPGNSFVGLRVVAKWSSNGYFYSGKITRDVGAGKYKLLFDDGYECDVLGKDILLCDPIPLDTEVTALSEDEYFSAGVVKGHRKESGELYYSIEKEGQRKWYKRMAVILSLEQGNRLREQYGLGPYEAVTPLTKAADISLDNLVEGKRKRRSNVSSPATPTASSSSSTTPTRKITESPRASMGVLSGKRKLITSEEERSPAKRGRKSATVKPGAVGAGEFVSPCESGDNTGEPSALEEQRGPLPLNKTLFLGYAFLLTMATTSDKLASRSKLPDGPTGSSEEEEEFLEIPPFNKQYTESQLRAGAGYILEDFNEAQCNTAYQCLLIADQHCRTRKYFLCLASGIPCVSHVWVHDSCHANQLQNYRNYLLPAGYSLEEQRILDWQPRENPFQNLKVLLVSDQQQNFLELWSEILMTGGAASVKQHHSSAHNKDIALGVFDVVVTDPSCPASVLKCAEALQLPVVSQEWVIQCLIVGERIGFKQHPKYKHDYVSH
T6 sequence (Q68E01 whole entry): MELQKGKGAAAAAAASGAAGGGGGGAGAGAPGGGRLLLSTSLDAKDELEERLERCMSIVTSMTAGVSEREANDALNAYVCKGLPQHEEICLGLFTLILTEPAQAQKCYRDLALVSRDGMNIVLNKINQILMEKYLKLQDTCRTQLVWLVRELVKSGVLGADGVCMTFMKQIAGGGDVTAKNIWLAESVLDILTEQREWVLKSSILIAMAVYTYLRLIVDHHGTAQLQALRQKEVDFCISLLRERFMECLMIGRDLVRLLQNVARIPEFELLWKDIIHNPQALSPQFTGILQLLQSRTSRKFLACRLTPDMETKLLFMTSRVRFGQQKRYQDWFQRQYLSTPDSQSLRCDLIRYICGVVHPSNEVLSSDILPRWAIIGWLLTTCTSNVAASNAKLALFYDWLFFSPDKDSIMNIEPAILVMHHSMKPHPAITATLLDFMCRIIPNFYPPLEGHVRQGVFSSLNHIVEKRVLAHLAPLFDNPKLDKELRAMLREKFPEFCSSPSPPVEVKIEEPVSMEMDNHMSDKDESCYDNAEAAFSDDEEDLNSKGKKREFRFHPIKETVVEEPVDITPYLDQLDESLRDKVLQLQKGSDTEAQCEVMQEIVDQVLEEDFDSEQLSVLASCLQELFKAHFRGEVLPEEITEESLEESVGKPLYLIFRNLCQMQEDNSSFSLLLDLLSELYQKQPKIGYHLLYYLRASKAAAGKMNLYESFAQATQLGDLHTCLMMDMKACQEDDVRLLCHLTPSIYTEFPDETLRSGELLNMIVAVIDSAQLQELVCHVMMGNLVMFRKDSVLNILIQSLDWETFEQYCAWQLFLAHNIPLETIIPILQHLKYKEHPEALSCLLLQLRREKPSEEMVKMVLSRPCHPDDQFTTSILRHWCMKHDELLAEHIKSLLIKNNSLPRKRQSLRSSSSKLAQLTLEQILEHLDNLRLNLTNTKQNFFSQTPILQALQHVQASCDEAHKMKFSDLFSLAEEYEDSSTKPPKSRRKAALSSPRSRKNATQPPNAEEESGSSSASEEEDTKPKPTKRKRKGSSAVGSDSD
T2 sequence (Q8NDM7 whole entry): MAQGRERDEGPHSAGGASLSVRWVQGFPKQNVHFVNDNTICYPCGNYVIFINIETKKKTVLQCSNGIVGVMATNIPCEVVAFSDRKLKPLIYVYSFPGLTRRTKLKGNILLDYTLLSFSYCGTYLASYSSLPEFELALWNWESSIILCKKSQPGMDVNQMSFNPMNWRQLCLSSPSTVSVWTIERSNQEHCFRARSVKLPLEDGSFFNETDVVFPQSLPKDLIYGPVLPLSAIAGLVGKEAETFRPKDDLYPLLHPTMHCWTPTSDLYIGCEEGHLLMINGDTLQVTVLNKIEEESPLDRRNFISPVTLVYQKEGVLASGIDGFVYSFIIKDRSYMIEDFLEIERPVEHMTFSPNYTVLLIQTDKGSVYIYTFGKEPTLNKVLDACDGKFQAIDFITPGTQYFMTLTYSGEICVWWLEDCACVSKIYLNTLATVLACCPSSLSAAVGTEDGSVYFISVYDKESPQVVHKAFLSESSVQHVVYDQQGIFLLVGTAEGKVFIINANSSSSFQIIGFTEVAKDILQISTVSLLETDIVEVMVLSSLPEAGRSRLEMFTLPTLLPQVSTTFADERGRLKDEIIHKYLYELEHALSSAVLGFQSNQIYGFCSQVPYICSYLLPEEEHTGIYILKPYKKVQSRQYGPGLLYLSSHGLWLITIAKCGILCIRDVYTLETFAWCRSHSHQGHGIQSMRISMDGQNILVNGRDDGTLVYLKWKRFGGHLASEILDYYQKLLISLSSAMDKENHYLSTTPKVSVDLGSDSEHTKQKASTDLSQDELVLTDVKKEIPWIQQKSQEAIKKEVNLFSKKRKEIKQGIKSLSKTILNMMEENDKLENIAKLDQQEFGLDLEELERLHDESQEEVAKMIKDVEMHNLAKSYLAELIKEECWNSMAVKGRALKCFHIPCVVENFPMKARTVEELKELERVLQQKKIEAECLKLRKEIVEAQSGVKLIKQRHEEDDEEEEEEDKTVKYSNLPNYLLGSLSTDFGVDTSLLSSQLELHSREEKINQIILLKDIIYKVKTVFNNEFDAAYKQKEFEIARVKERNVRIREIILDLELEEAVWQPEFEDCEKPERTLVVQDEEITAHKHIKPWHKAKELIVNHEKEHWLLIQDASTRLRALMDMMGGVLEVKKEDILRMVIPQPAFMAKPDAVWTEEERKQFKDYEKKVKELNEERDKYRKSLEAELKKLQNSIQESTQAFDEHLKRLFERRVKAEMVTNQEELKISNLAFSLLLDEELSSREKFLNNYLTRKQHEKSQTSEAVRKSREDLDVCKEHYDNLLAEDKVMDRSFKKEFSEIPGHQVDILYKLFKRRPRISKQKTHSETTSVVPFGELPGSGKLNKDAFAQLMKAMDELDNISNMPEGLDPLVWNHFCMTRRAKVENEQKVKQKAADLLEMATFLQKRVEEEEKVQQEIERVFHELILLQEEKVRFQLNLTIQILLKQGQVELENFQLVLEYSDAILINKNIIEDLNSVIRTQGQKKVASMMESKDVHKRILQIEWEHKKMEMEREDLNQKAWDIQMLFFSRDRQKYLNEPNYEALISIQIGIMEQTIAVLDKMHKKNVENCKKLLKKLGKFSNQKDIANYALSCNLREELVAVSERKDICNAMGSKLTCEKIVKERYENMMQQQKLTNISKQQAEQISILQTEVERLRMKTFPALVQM
T1 sequence (O95881 27-172): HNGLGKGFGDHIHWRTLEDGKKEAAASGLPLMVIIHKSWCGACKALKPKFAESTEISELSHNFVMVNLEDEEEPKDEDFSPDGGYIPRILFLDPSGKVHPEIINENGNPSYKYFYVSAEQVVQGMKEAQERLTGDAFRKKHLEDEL

Row | Substance | Total peptides, TXNDC12 [1] | Total peptides, WDR96 [2] | Total peptides, RBMXL1 [3] | Total peptides, HIST2H2BE [4] | Total peptides, RPS29 [5] | Total peptides, INTS3 [6] | 53BP1 recruitment to DSB sites (ionizing radiation focus formation) [7] | BRCA1 accumulation at DSB sites in G1 cells ([8]; U2OS cells, cell cycle stage by Cyclin A staining) | BRCA1 focus formation ([8]; transfected U2OS cells, 1 h post-irradiation) | Total peptides, NAP1L1 [9]
1 | i53-DM: 53BP1-binding deficient mutant of i53 (P69L, L70V) | 2 | 4 | 3 | 3 | 3 | 3 |  |  |  | 
2 | i53: UbvG08 with C-terminal di-glycine removed and I44A mutation; genetically encoded inhibitor of 53BP1 |  |  |  |  |  |  | strongly suppressed 53BP1 recruitment to DSB sites | induced BRCA1 accumulation at DSB sites in G1 cells | did not impact | 4
